This note sets out measurements from paper PMC7332060, “Characterizing the actin-binding ability of Zasp52 and its contribution to myofibril assembly” (PLoS ONE, 2020).

As usually defined, the Kd is the equilibrium constant for the complex coming apart. Lower therefore signals higher affinity.

B1: GST-Zasp52-PK (natural protein)
chain: MAQPQLLQIKLSRFDAQPWGFRLQGGTDFAQPLLVQKVNAGSLSEQAGLQPGDAVVKINDVDVFNLRHKDAQDIVVRSGNNFVITVQRGGSTWRPHVTPTGNVPQPNSPYLQTVTKTSLAHKQQDSQHIGCGYNNAARPFSNGGDGGVKSIVNKQYNTPVGIYSDESIAETLSAQAEVLAGGVLGVNFKKNEKEYQGDRSEVLKFLREEETGQSTPAFGNSHYEHDAPQQLQQPQQQYNQHQQHYHQQQQQQQSSTTRHVSAPVNSPKPPSTGGLPTGQNICTECERLITGVFVRIKDKNLHVECFKCATCGTSLKNQGYYNFNNKLYCDIHAKQAAINNPPTGTEGYVPVPIKPNTKLSASTISSALNSHGYGGHSNGYSNGNSTPAPAPV

Assay [1] addresses G-actin (Cytoskeleton AKL-99) (UniProt P68135 1-377). Kind of assay: SPR; surface plasmon resonance imaging (PlexArray HT); GST-Zasp52-PK printed on gold-coated chip; G-actin or α-actinin injected; PBST running buffer; 25°C; kinetic analysis with BIAevaluation 4.1. The following applies: both partners purified. Background: SPR reads the build-up and loss of mass on a sensor chip optically.

The assay “GST-Zasp52-PK” addresses B1. The assay is described as above. The conditions noted are these: both partners purified.

With B1, in assay [1], the Kd amounted to 1100 nM.

B2: α-actinin (Cytoskeleton AT-01) (natural protein)
chain: MNQIEPGVQYNYVYDEDEYMIQEEEWDRDLLLDPAWEKQQRKTFTAWCNSHLRKAGTQIENIEEDFRNGLKLMLLLEVISGERLPKPDRGKMRFHKIANVNKALDYIASKGVKLVSIGAEEIVDGNVKMTLGMIWTIILRFAIQDISVEETSAKEGLLLWCQRKTAPYRNVNIQNFHTSWKDGLGLCALIHRHRPDLIDYSKLNKDDPIGNINLAMEIAEKHLDIPKMLDAEDIVNTPKPDERAIMTYVSCFYHAFAGAEQAETAANRICKVLAVNQENERLMEEYERLASELLEWIRRTIPWLENRTPEKTMKAMQKKLEDFRDYRRKHKPPKVQEKCQLEINFNTLQTKLRISNRPAFMPSEGKMVSDAGAWQRLEQAEKGYEEWLLNEIRRLERLEHLAEKFRQKASTHETWAYGKEQILLQKDYESASLTEVRALLRKHEAFESDLAAHQDRVEQIAAIAQELNELDYHDAVNVNDRCQKICDQWDRLGTLTQKRREALERTEKLLETIDQLHLEFAKRAAPFNNWMEGAMEDLQDMFIVHSIEEIQSLITAHEQFKATLPEADGERQSIMAIQNEVEKVIQSYNIRISSSNPYSTVTMDELRAKWDKVKQLVPIRDQSLQEELARQHANERLRRQFAAQANAIGPWIQNKMEEIARSSIQITGALEDQMNQLKQYEHNIINYKNNIDKLEGDHQLIQEALVFDNKHTNYTMEHIRVGWELLLTTIARTINEVETQILTRDAKGITQEQMNEFRASFNHFDRRKNGLMDHEDFRACLISMGYDLGEAEFARIMTLVDPNGQGTVTFQSFIDFMTRETADTDTAEQVIASFRILASDKPYILAEELRRELPPDQAQYCIKRMPAYSGPGSVPGALDYTAFSSALYGESDL
B2 displayed a Kd with GST-Zasp52-PK of 86.5 nM.
